# According to patent US8198236B2, “Methods and compositions for the treatment of cancer” (Washington University, priority 2007, dated 2012):
# B1: Mesd: Recombinant full-length mouse Mesd expressed in E. coli, N-terminal polyhistidine tail, lacking the signal peptide (protein)
# chain: ADTPGEATPPPRKKKDIRDYNDADMARLLEQWEKDDDIEEGDLPEHKRPSAPIDFSKLDPGKPESILKMTKKGKTLMMFVTVSGNPTEKETEEITSLWQGSLFNANYDVQRFIVGSDRAIFMLRDGSYAWEIKDFLVSQDRCAEVTLEGQMYPGKGGGSKEKNKTKPEKAKKKEGDRKPRASKEDNRAGSRREDL
# modifications: left off: small tags and cut ends
# notes: Recombinant full-length mouse Mesd expressed in E. coli, N-terminal polyhistidine tail, lacking the signal peptide
# Target: T1, LRP6 (Homo sapiens, UniProt O75581)
# T1 construct: expressed in transfected cells; host or cells: human HT1080 cells, retroviral vector pLNCX2
# T1 sequence (O75581 20-1613): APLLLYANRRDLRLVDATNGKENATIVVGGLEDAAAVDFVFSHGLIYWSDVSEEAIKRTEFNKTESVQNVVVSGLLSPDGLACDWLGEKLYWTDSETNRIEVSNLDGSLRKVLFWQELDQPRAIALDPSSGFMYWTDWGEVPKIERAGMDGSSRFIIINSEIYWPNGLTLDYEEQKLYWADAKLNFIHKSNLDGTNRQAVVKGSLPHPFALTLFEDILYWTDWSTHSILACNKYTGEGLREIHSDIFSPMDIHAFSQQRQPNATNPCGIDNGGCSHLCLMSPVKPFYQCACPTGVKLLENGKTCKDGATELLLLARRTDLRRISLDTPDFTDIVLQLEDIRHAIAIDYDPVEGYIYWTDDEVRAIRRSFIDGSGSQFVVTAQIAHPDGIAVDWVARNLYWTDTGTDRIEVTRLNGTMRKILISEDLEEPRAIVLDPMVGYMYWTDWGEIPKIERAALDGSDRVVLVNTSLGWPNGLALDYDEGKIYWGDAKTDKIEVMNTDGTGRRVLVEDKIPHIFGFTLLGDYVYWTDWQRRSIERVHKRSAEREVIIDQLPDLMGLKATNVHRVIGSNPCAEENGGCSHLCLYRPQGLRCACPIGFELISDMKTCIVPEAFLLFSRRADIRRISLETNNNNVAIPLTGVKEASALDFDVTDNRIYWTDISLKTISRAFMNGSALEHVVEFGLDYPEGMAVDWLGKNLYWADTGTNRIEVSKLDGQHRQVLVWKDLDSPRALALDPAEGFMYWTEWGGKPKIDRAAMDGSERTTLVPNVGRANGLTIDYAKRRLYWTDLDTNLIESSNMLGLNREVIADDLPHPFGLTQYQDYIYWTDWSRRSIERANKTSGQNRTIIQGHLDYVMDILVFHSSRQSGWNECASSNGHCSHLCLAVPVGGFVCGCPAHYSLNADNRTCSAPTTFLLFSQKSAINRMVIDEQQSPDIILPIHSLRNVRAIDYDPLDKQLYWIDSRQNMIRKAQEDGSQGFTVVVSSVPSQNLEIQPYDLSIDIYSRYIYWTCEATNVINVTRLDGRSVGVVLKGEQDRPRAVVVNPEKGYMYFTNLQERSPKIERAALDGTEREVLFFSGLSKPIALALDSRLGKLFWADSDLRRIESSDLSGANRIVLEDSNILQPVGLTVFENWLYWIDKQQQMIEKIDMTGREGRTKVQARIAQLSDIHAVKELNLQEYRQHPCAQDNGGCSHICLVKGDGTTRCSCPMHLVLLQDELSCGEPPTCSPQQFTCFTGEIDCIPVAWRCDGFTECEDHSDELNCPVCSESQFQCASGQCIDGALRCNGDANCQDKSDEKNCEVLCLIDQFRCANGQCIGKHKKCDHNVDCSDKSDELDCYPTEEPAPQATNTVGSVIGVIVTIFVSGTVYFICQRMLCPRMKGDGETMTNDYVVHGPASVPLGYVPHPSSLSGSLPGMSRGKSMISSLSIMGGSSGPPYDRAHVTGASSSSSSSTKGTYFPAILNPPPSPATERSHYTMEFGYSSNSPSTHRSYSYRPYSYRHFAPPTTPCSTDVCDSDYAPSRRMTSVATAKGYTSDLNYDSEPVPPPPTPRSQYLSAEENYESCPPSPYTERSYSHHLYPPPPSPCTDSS
# Experiment: LRP6-mediated 125I-DKK1 degradation in LRP6-transduced HT1080 cells
# Format: cell-based
# Conditions: 500 nM unlabeled, 4 hours at 37° C.
# Experimental: Ligand degradation was performed using the methods as described in Li, Y., et al., J. Biol. Chem. 275: 17187-17194, 2000. Briefly, 2×10^5 cells were seeded into 12-well dishes 1 day prior to assay. Pre-warmed assay buffer (minimal Eagle's medium containing 0.6% BSA with radioligand, 0.6 ml/well) was added to cell monolayers in the absence or the presence of unlabeled 500 nM RAP or 500 nM Mesd, followed by incubation for 4 hours at 37° C. Thereafter, the medium overlying the cell monolayers was removed and proteins were precipitated by addition of BSA to 10 mg/ml and trichloroacetic acid to 20%. […] After each time point, the plates were quickly placed on ice and the assay buffer was replaced with cold stop/strip solution. ^125I-anti-HA IgG that remained on the cell surface was stripped by incubation of cell monolayers with cold stop/strip solution for a total of 20 minutes (0.75 ml for 10 minutes, twice) and counted. Cell monolayers were then solubilized with low-SDS lysis buffer and counted. […] The fraction of internalized ^125I-anti-HA IgG after each time point was calculated and plotted.
# RAP is a receptor antagonist for members of the LDLR family, and is able to inhibit the binding of most known ligands of the LDLR family members. […] Cell-surface-bound Myc-tagged DKK proteins were fixed and detected by immunofluorescence staining with anti-Myc antibody. […]
molecule,measurement,value
B1,Effect on increased 125I-DKK1 degradation of LRP6-expressing HT1080 cells,abolished
